Experimental data as given in patent EP4763867A1 (Shanghai Mabgen Biotech Ltd., dated 2026).
Like-named read-outs stand apart in the source and are kept apart here. Each block holds one binder with its values, some of them ahead of it.

Legend:
[1] = target: T1, human PD-1 (SEQ ID NO: 1) expressed on cells (human, UniProt Q15116 25-288); test: cell-based or functional assay
[2] = target: T2, Biotinylated human PD-1 (AcroBiosystems, PD1-H82E4) (human, UniProt Q15116 25-167, biotinylated (site not stated)); test: screening of a VHH yeast display library with biotinylated antigens
T2 construct: Screening antigen of the yeast display library; also called human PD-1 antigen (screening antigen)

[3] = target: T1, human PD-1 (SEQ ID NO: 1) expressed on …; test: cell-based or functional assay; remark: listed apart in the source
[4] = target: T3, IL-2Rβ and IL-2Rγ on M07e cells (moderate-avidity IL-2 receptor IL-2Rβγ) (human, UniProt P14784 27-551; P31785 23-369); test: cell-based or functional assay
T3 sequence (looked up) 1: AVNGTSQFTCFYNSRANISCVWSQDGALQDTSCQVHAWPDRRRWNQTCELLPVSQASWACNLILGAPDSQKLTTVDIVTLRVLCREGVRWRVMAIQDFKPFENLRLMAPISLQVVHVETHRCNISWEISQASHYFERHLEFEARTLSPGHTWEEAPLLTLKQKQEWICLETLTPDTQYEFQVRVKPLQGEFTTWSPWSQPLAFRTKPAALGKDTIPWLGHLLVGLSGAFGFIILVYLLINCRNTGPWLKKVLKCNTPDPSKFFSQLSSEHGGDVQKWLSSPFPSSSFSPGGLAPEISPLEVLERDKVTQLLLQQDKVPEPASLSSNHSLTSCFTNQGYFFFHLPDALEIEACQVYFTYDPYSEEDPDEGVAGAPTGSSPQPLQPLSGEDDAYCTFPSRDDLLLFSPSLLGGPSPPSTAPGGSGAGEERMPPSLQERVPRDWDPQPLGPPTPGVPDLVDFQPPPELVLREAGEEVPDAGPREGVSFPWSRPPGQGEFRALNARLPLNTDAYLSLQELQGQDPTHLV
T3 sequence (looked up) 2: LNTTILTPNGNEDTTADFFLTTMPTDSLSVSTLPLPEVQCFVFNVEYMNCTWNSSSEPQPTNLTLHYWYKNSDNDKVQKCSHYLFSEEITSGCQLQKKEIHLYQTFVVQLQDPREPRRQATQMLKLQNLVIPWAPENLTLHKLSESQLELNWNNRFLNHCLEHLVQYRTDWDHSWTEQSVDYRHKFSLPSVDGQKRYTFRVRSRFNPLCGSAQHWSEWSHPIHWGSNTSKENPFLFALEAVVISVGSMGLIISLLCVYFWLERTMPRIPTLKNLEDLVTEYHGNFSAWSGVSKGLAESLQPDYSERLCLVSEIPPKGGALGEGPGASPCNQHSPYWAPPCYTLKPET

T1 sequence (Q15116 25-288 limits assumed): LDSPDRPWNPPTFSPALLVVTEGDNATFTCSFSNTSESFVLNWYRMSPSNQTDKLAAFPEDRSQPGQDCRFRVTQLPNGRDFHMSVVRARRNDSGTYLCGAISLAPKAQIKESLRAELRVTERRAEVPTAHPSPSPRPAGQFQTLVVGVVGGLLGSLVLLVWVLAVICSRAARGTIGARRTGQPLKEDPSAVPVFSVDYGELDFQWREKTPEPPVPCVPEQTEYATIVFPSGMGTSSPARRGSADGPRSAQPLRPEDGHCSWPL
T2 sequence (Q15116 25-167 limits assumed): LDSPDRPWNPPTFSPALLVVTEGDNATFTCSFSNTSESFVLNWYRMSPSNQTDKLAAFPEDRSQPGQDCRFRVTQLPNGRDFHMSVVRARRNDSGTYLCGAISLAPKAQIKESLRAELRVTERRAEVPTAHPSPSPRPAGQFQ

activity IC50, PD-1/PD-L1 NFAT reporter gene system [1]: 1.2 nM
B1: A17_hIgG4 (antibody, V domains shown)
VH: EVQVVESGGGLVQPGGSLRLSCVASGLTFSDYSMSWYRQAPGKERELVAIISGSGVIAHYVDSVKGRFTISRDNAKSTVYLQMVSLKPEDRGVYYCRAVSDWDDYWGQGTQVTVSS

binding result [2]: binds
B2: A17 (VHH)
VHH: EVQVVESGGGLVQPGGSLRLSCVASGLTFSDYSMSWYRQAPGKERELVAIISGSGVIAHYVDSVKGRFTISRDNAKSTVYLQMVSLKPEDRGVYYCRAVSDWDDYWGQGTQVTVSS
notes: also called Variable region of A17

activity IC50, PD-1/PD-L1 NFAT reporter gene system [3]: 0.435 nM
B3: A17m0902_hIgG4 (antibody, V domains shown)
VH: EVQLVESGGGLVQPGGSLRLSCAASGLTFSDYSMSWYRQAPGKGRELVAIISGSGVITHYVDSVKGRFTISRDNAKNTLYLQMRSLRAEDTAVYYCRAVSDWEDYWGQGTQVTVSS

M07e proliferation, EC50 [4]: 20.9 nM
M07e-hPD1 proliferation, EC50 [4]: 13.3 nM
B4: PEGylated IL-2 mutant (PEG-IL-2v) (ligand)
chain: APASSSTKKTQLQLEHLLLDLQMILQGISNYKNPKLTRMLTAKFYMPKKATELKHLQCLEEELKPLEEVLQGAQSKNFHLRPRDLISNINVIVLELKGSETTFMCEYADETATIVEFLNRWITFAQSIISTLT
modifications: PEGylated (site and PEG not stated)
